Assay: soluble on expression in E. coli; label from the status in PepcDB or PDB records

Sequence | soluble on expression in E. coli
SMQVERESISRLMQNYEKINVNEITRFSDFPLSKKTLKGLQEAQYRLVTEIQKQTIGLALQGKDVLGAAKTGSGKTLAFLVPVLEALYRLQWTSTDGLGVLIISPTRELAYQTFEVLRKVGKNHDFSAGLIIGGKDLKHEAERINNINILVCTPGRLLQHMDETVSFHATDLQMLVLDEADRILDMGFADTMNAVIENLPKKRQTLLFSATQTKSVKDLARLSLKNPEYVWVHEKA | soluble
MIEAALENPVPIKSQLSPTPRYFGSCKWFNVSKGYGFVIDDITGEDLFVHQSNLNMQGFRSLDEGERVSYYIQERSNGKGREAYAVSGEVEGQGLKGSRIHPLGRKKAVSLRCFRCGKFATHKAKSCPNVKTDAKVCYTCGSEEHVSSICPERRRKHRPEQVAAEEAEAARMAAEKSSPTTSDDDIREKNSNSSDE | soluble
MSLKQKLSHPYLAKHISAPKIDEDKLLLFHALFEEADIKNNDRENYIVTAMLVQSALDTHDEVTTARVIKRDENKNRQLTVLAGDYFSGLYYSLLSEMKDIYMIRTLATAIKEINEHKIRLYDRSFKDENDFFESVGIVESALFHRVAEHFNLPRWKKLSSDFFVFKRLMNGNDAFLDVIGSFIQLGKTKEEILEDCFKKAKNSIESLLPLNSPIQNILINRLKTISQDQTYHQKEGHHHHHH | not soluble
MAHHHHHHMAADEDAREHRTMCRLLQAATGKLSDMTVTTNIETHIATLRAANMSTSPKEWHALFNSKNNSNAYEKLSAEGKKEAGALGGAAAWGAWRTDKEEAEKKKIGTQEDKDFPAIADARQQFAAHNRLLELTAKAVEISKKWKAAKDFITNDETNNIQKLLREALYEDGAAADALTQSTSFGTGSNWASHCNGDDKRKSISGDFLCMRGGSGGAAKECSGAFTGAEIDNQGTITTKWADLKASCALNTENVITPHEIAAALGSLARQPHTTRSSK | not soluble
MENNPFQRTEKIDISWCPGCGNFAIKASLSNALSKLNLKPQNVAIISGIGQAGKMPHYMFVNGFHTLHGRAIPAATAVKATNPELTVIAEGGDGDMYAEGGNHLIHAIRRNPNITVLIHNNQIYGLTKGQASPTTLVSTKTPTQPWGVFEEPLNPIALAISLNASFVARTFSGNLEKTEEIIIKAINHKGLSIVDIFHPCPSFNKVNTLQWYNENTYFLEDHDVTDRKKAFEKALQTEKYPLGIFYTCEKPVFEEVVPPYISEKTPIWKREPDLEKIEEIINSKRT | not soluble
MGSDKIHHHHHHMTIQIDLPETSTNKIIYSDECKDILNLSVAKIQEMFKSSGIILFRGFGITHELMQVFAEQFSSRLTRDDDKPLVEPNGFVSLVDIGMHEILPHRENGSSPFSPDAVWFCCTVPAAEGGETLFWDGIQVWQKLSEELRKLFISKKIKFVHKFPADKWKHFLGSDATISDAKRVLDGFNNVKYQIDQEESIYTEYICSAVLQTKYGNQNAFVNDIITGNSNLKGSVNLELESALTFEDGSLIPDAAIEEIEKVMYSLTQEIRWKPGDLVMIDNSRFLHGRRAFSDNRRRLFSLLSYLNF | not soluble
MSIDIKYLSRIDIDREEFFFKDSRLMCKKFDEEREVLTLLEFDTKFRVNLLKKDKVYKYFLVSDANHKLLIANLVTEQQAKDLSFIEKDIMKIASSATAYGASDIHFIREDRICKIKFRVNGTMIDYREILSSEADALMFVLYNVMATTKETTWNRKLPQDANIILVINEKAYRFRYAHMPLFGEGGKNYHAVVRIIYPSNNFVCTNYQDIGYNEADTDAIARILNTSYGLFIVSGTTGSGKSTSLKKYIELLFFNKYKGKGCFVTVEDPVEYLISGAQQSSIVADNDDKTKNPFADAVRSAMRRDPDVIMIGEIRDKPTVEALSSAVESGHYCLTTIHAGSVVSVLQRLSGLGMKADKIASPGFLAGITSQKLIPELCPSCKVSFVDERYQRAVFSANENGCEACNHSGFKGRLLLLETLVPTVEDLELVASENWVSLYRKYRERRFIKTGKKGLGEGFSIKDKAYYNVLKGKVCHEYFMLHFGQLDHEDENIIYENYLQEV | not soluble
MTPILTDRPALARHRTRACRAPALFLHEEAAREVEERLSEVNRRFTAPAVVTAFPEVWRDRLPNARIVTDAEELALDPGAHDLVIHALAMHWSNDPVGQLVQSRRALRPDGLFLGLLFGGRTLSELRIALAEAEAAVTGGLSPRVLPMAEIRDLGALLQRAGFALPVADSLVREVRYRDTLHLMRDLRAMGETNALEARLRRPSRRALFAEAEARYPRRADDRIVASFEIICLTGWAPHESQQKPLRPGSAARSLAEALAAARKDGPGDG | not soluble
MGSDKIHHHHHHMAAVDLEKLRASGAGKAIGVLTSGGDAQGMNAAVRAVTRMGIYVGAKVFLIYEGYEGLVEGGENIKQANWLSVSNIIQLGGTIIGSARCKAFTTREGRRAAAYNLVQHGITNLCVIGGDGSLTGANIFRSEWGSLLEELVAEGKISETTARTYSHLNIAGLVGSIDNDFCGTDMTIGTDSALHRIMEVIDAITTTAQSHQRTFVLEVMGRHCGYLALVSALASGADWLFIPEAPPEDGWENFMCERLGETRSRGSRLNIIIIAEGAIDRNGKPISSSYVKDLVVQRLGFDTRVTVLGHVQRGGTPSAFDRILSSKMGMEAVMALLEATPDTPACVVTLSGNQSVRLPLMECVQMTKEVQKAMDDKRFDEATQLRGGSFENNWNIYKLLAHQKPPKEKSNFSLAILNVGAPAAGMNAAVRSAVRTGISHGHTVYVVHDGFEGLAKGQVQEVGWHDVAGWLGRGGSMLGTKRTLPKGQLESIVENIRIYGIHALLVVGGFEAYEGVLQLVEARGRYEELCIVMCVIPATISNNVPGTDFSLGSDTAVNAAMESCDRIKQSASGTKRRVFIVETMGGYCGYLATVTGIAVGADAAYVFEDPFNIHDLKVNVEHMTEKMKTDIQRGLVLRNEKCHDYYTTEFLYNLYSSEGKGVFDCRTNVLGHLQQGGAPTPFDRNYGTKLGVKAMLWLSEKLREVYRKGRVFANAPDSACVIGLKKKAVAFSPVTELKKDTDFEHRMPREQWWLSLRLMLKMLAQYRISMAAYVSGELEHVTRRTLSMDKGF | not soluble
MDLIHEKVFVNRYHYDVRNHEWEKENGVPKTNVEVTFQLHHKDKEANNTSVVAVLQFMIVRDEFVISGIVSQMNHIQNRIVNNPKDFSQEEAEYLAAPLLDTLQRLTYEVTEIALDRPGINLEF | not soluble
MGSDKIHHHHHHMPTLPMPSFLSSYWESSFNLKQHIQEFLQLDAEILETKLEFGQQQMAELGHKDFDWEQATAFYRDKVGEVYLFELGAWHLASHDYIGDTLRLIADHAHGCVLDFGGGIGTHAIGAALCPHVEQVVYCDINPINFDFVKYRAEKLGLSEKIIFCVEIPPQKTFDTIMSFDVLEHLPDPSQQLLEFHQILADEGKMILNWHFFKGFNQEHPFHLDDPQAIDTFFKTIQSNCLEVFHPYHITARCYRKWN | not soluble
MAHHHHHHMQVPPLTELSPSISVHLLLGNPSGATPTKLTPDNYLMVKNQYALSYNNSKGTANWVAWQLNSSWLGNAERQDNFRPDKTLPAGWVRVTPSMYSGSGYARGHIAPSADRTKTTEDNAATFLMTNMMPQTPDNNRNTWGNLEDYCRELVSQGKELYIVAGPNGSLGKPLKGKVTVPKSTWKIVVVLDSPGSGLEGITANTRVIAVNIPNDPELNNDWRAYKVSVDELESLTGYDFLSNVSPNIQTSIESKVDN | soluble
MSNRFKFFAAIREYNPEGEVFLRIIGTGSNNNLTYRIMESRLNEVGISLGSFLSAVVPMGEPIRDFVPEERNFKVIIDGIVAMVENIEGNLEKNEEGVLVFSTEDFGLVRALDQKLSPGQYQITVRATKFSERKIFKNMNYCAEAQKIAPLVTATESESIFKRVASFFQKSPEENSLESTSKQANEEKDSSVQDLSMAELIEILPNLDQKSINQPTPAPRSMVGSVGITRTMNALVCDVIHQEKECIHFLWICEIQQISMFASKSHYLSPGKFFEGLFEKKETNWECIRFVGEKKELLKGITDGDKFKVTLTNEQGFPVFTVENLYAKLIAFEGKFVFHNKTFGNAIIGCYRPPGDYKITIKLLPIPFTTPTGKFICFEAIHFESADVLSSSNTNTTENKKKVTEKVKERGIRRPQDPKSKGIQRAVVIRVIEKGNSTDYIVWNLDSKMECIFRSAKHELERGHFFSGKFVKKSDGSLMCTNYVKQIKGFVEGGLDEHENIYFTVPIQNFQAARGNRKYNCAFSEYFGEVLEGKAENTKLSSNCNGKTVNIEWKKIGASGSDEYVWIVSKIF | not soluble
MSLKVIATDMDGTLLDARGQLDLPRLEKILDQLDQRGIRFVIATGNEIHRMRQLLSPLVDRVVLVVANGARIFENNELIQAQTWDDAIVNKALTHFKGRACQDQFVVTGMKGDFVKEGTIFTDLESFMTPEMIEKFYQRMQFVDELTSDLFGGVLKMSMVVGEERLSSVLEEINALFDGRVRAVSSGYGCIDILQAGIHKAWGLEELLKRWDLKSQEIMAFGDSENDVEMLEMAGIAYAMENADEKAKAVATALAPANSQGGVYQVLENWLEKGEGHHHHHH | soluble
MGSDKIHHHHHHMTANPTVFTFADSTDLILEIPDSTTANLDSQLFSHPYSRYQAYLNELCLSAVLPWLQEDFSTQAKVWPSATTLASLWELVNGTAVTIDGKRFILVPSENIDHSELRVQQEWVDLPTWAGDYYLAVQVDGEYVKVWGYCTHTQLKHQGKYDPGDRTYSLDITDIVNDISVLAVARDLCPDEITRTAIAPLPTIPQEQAQNLITRLSNPEIINPRLAIPFQLWGALIEHGGWRQSLYERRLGLPEQRSVLQWLQSGVSQVAQTMGWGRLNLQLSAAGARSVEERQTGVTLSRRLTIAGQLYELLITPQGEPDAPYWRFELRNAAVGAVIPGGFKLRLLTEDLQSFPNNEDIATNAVEQLYVEVALEAGEGIVWEIEPLPENYDREILKF | not soluble
MIIQDIIEAIEAVCPRAYQESYDNSGVQVGDTKREATGALLCVDVTEAVLEEAIRLGCNLVIAHHPILFKPLKRLTGSSYVERCVELAVRHGLVLYAAHTNADNAPQGLNALLAERFGLLNTRPLEPLQGKLLELVTFVPTEYADAVRQALWQAGAGRLGHYDCCSFSHAGTGTFRAAEGANPFVGAISELHHEAEERISLVLPAYRQGTVLQALHAAHPYELPAVSLIPLANDHPSAGGGIVGDLPSPISEREMLLHIKEVFGLKVLSHSAWRERPLRRMAICGGSGAFMWRRAAQEGADLFLTGEAKYNDFFDAGEHLLLVTIGHYESEEVANELFMRIISQKFPTFATHKSSVATNPVNYL | not soluble
MKRVLVAMSGGVDSSVAALLLKEAGYEVVGAMMRFWPDLPPPSLEAGKPRAWESCCTPDAAYEARRVADRLGIPFYLLDYREVFEEEIISPFLQDYAQGRTPNPCARCNTFVKFGALLKQARRLGLDYVATGHYVRKEGLALLRGLDPHKDQTYFLWGTPKEALPHLLFPVGGLTKPEVRALAEKAGLPTARRPESQNLCFVAGDLKGFLKERLKPRPGPLVDALTGEVVGEHEGASLYTLGQRKGLGLYKTHLERYVVGVDPERNVVYVGPKEACYFEGLEGEGLNLLAELPEEVEVQVRYRTPPVRAKVESLSPLRLRFAHPVFAVTPGQSAVFYRGERLLGGAVIRRGLYNLAGLEDPRALTFS | soluble
MVKSPGASPERKKVKIDVYPMVVKDPQAREINETLLFDYTTALSSFETPTEEQLLVSEGDAFRHHPNEDVEQYFRASAQWGVPAIAWNIVRPAFLWKLEFCITEFMNVEKKKKEAAANSAQANSEVEKIAESPVKEKLSILGHKVNLIKTTPVVFSTEESMEFVLSKAKSFDGFPFTWQRLCELLIEPMRHYNTIDKFLRAVDKVINVVTTINENGGRSFGDWDLPNSQQFHLENTFFGVVDEVEMMELEKVKHDFQSSSSPSEEPLDMSQKSMPAPRVSTASPDPPSFVLPTARSPINTSPSSSPKASSPKASSPKAASPVSSPKSPVIQDQSPKKEDAKEGEGEIVHEEEMPEETLEVETKNEVNKEDADMEIGAE | not soluble
